# From patent US6365158
# How the values were obtained:
# [1] = molecular target: Crotalus durissus terrificus (C.d.t.) venom; test: ELISA, C.d.t. venom-coated wells, IgY 1:312,500
# [2] = molecular target: Crotalus durissus terrificus (C.d.t.) venom; test: ELISA, C.d.t. venom-coated wells, 1:625
# [3] = molecular target: Crotalus durissus terrificus (C.d.t.) venom; test: ELISA, C.d.t. venom-coated wells, 1:25
# [4] = molecular target: Crotalus durissus terrificus (C.d.t.) venom; test: ELISA, C.d.t. venom-coated wells, 1:3125
# [5] = molecular target: Crotalus durissus terrificus (C.d.t.) venom; test: ELISA, wells coated with 5 µg/ml C.d.t. venom, 1:5
# [6] = molecular target: Crotalus durissus terrificus (C.d.t.) venom; test: ELISA, wells coated with 5 µg/ml C.d.t. venom, undiluted
# [7] = molecular target: Crotalus durissus terrificus (C.d.t.) venom; test: ELISA, wells coated with 5 µg/ml C.d.t. venom, 1:125
# [8] = molecular target: Crotalus durissus terrificus (C.d.t.) venom; test: ELISA, C.d.t. venom-coated wells, 1:5
# [9] = molecular target: Crotalus durissus terrificus (C.d.t.) venom; test: ELISA, C.d.t. venom-coated wells, 1:125
# [10] = molecular target: Crotalus durissus terrificus (C.d.t.) venom; test: ELISA, wells coated with 5 µg/ml C.d.t. venom, 1:3125
# [11] = molecular target: Crotalus durissus terrificus (C.d.t.) venom; test: ELISA, wells coated with 5 µg/ml C.d.t. venom, 1:625
# [12] = molecular target: Crotalus durissus terrificus (C.d.t.) venom; test: ELISA, C.d.t. venom-coated wells, IgY 1:62,500
# [13] = molecular target: Crotalus durissus terrificus (C.d.t.) venom; test: ELISA, wells coated with 5 µg/ml C.d.t. venom, 1:25
substance,measurement,setting,value
preimmune IgY (antibody),absorbance (ELISA) (absorbance at 412 nm),[1],0.01
same,absorbance (ELISA) (absorbance at 412 nm),[2],< 0
same,absorbance (ELISA) (absorbance at 412 nm),[3],0.016
same,absorbance (ELISA) (absorbance at 412 nm),[4],< 0
same,absorbance (ELISA) (absorbance at 412 nm),[5],< 0
same,absorbance (ELISA) (absorbance at 412 nm),[6],0.003
same,absorbance (ELISA) (absorbance at 412 nm),[7],0.003
same,absorbance (ELISA) (absorbance at 412 nm),[8],< 0
same,absorbance (ELISA) (absorbance at 412 nm),[9],< 0
same,absorbance (ELISA) (absorbance at 412 nm),[10],0.002
same,absorbance (ELISA) (absorbance at 412 nm),[11],0
same,absorbance (ELISA) (absorbance at 412 nm),[12],0.001
same,absorbance (ELISA) (absorbance at 412 nm),[13],0
